Reference: patent US20120045785A1

Tests used:
[1] = molecular target: HtubA/B dimer (hybrid bacterial-bovine tubulin heterodimer) (Prosthecobacter dejongeii); experiment: cell-based or functional assay
[2] = molecular target: eukaryotic microtubules; experiment: cell-based or functional assay

Chain of HtubA/B dimer (hybrid bacterial-bovine tubulin heterodimer) (Prosthecobacter dejongeii) (chain, as listed by the source, chain 1 of 2): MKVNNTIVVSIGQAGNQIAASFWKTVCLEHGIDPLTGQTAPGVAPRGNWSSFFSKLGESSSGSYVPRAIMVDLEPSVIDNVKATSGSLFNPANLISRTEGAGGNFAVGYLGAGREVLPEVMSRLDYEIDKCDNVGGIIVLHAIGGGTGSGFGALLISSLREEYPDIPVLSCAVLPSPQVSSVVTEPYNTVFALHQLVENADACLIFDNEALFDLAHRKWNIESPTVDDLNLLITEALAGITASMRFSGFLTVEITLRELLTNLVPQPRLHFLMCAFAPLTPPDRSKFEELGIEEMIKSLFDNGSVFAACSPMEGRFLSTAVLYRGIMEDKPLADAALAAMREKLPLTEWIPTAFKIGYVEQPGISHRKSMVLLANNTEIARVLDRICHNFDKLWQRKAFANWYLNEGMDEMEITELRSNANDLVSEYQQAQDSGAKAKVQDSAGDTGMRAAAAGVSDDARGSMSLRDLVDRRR
Chain of HtubA/B dimer (hybrid bacterial-bovine tubulin heterodimer) (Prosthecobacter dejongeii) (chain, as listed by the source, chain 2 of 2): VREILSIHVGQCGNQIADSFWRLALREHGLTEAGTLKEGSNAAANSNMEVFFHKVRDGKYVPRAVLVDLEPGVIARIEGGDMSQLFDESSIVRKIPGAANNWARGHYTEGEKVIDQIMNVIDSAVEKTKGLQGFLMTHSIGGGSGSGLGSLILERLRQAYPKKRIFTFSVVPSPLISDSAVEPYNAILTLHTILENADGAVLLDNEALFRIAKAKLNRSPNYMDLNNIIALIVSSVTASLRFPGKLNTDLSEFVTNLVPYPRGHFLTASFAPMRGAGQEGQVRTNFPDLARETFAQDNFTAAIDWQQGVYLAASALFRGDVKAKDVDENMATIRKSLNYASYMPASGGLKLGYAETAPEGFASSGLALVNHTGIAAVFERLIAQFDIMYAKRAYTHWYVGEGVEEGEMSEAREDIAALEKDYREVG

rate of ATP binding (MANT-ATP, stopped-flow) [1]: 265 s⁻¹
rate of ATP binding (MANT-ATP, stopped-flow) [2]: 25 to 30 s⁻¹
Substance: Eg5 (a kinesin-5) motor domain (enzyme)
